We go through 17 sequences from the Immune Epitope Database (IEDB).

Experiment [1] has as its target HLA-C*12:03. Description: IEDB peptide-MHC binding, purified MHC/direct/fluorescence; filed as Kd, often an IC50 or EC50 that approximates it; ≥ and ≤ were set here for values at or beyond the usual limits of such assays.
Experiment [2] addresses HLA-A*26:01. Description: IEDB peptide-MHC binding, purified MHC/competitive/fluorescence; filed as Kd, often an IC50 or EC50 that approximates it; ≥ and ≤ were set here for values at or beyond the usual limits of such assays. The conditions noted are these: source organism: Yersinia pestis Antiqua.
The target of experiment [3] is HLA-B*35:01. Described as above. The conditions noted are these: source organism: Yersinia pestis Antiqua.
For experiment [4], the target named is HLA-A*01:01. Described as above. The conditions noted are these: source organism: Yersinia pestis Antiqua.
Experiment [5] addresses HLA-A*03:01. Nature of the experiment: IEDB peptide-MHC binding, purified MHC/direct/fluorescence; filed as Kd, often an IC50 or EC50 that approximates it; ≥ and ≤ were set here for values at or beyond the usual limits of such assays.
Experiment [6] addresses HLA-A*11:01. Described as above.
Experiment [7] deals with HLA-A*31:01. Description: IEDB peptide-MHC binding, purified MHC/competitive/fluorescence; filed as Kd, often an IC50 or EC50 that approximates it; ≥ and ≤ were set here for values at or beyond the usual limits of such assays.
Experiment [8] addresses HLA-A*02:03. Nature of the experiment: IEDB peptide-MHC binding, purified MHC/competitive/radioactivity; filed as Kd, often an IC50 or EC50 that approximates it; ≥ and ≤ were set here for values at or beyond the usual limits of such assays.
For experiment [9], the target named is HLA-B*44:02. The description is as above. The conditions noted are these: source organism: Hepatitis C virus (isolate H).
Experiment [10] deals with HLA-A*31:01. Described as above.
The target in experiment [11] is HLA-A*03:01. Described as above.
In experiment [12] the target is HLA-B*07:02. The description is as above.
The target of experiment [13] is HLA-B*40:02. Described as above. The conditions noted are these: source organism: Hepatitis C virus (isolate H).
Experiment [14] addresses HLA-A*68:02. The description is as above.
The target in experiment [15] is HLA-B*54:01. Described as above.
In experiment [16] the target is HLA-B*53:01. The experiment is described as above.
Experiment [17] concerns the target HLA-B*35:01. The experiment is described as above.
In experiment [18] the target is HLA-B*44:03. Described as above. The conditions noted are these: source organism: Hepatitis C virus (isolate H).
Experiment [19] addresses HLA-A*02:02. The experiment is described as above.
Experiment [20] concerns the target HLA-A*02:06. The experiment is described as above.
Experiment [21] addresses HLA-A*68:01. The description is as above.
The target in experiment [22] is HLA-A*01:01. The experiment is described as above. The conditions noted are these: source organism: Hepatitis C virus (isolate H).
The target in experiment [23] is HLA-A*33:01. The description is as above.
Experiment [24] concerns the target HLA-B*18:01. The experiment is described as above. The conditions noted are these: source organism: Hepatitis C virus (isolate H).
Experiment [25] addresses HLA-B*08:01. The experiment is described as above. The conditions noted are these: source organism: Hepatitis C virus (isolate H).
For experiment [26], the target named is HLA-B*40:01. Described as above. The conditions noted are these: source organism: Hepatitis C virus (isolate H).
For experiment [27], the target named is HLA-B*51:01. The experiment is described as above.
In experiment [28] the target is HLA-A*02:01. The description is as above.
In experiment [29] the target is HLA-A*11:01. The description is as above.
For experiment [30], the target named is HLA-B*51:01. Description: IEDB peptide-MHC binding, purified MHC/competitive/fluorescence; filed as Kd, often an IC50 or EC50 that approximates it; ≥ and ≤ were set here for values at or beyond the usual limits of such assays. The conditions noted are these: source organism: Rickettsia felis URRWXCal2.
The target in experiment [31] is HLA-A*03:01. The experiment is described as above. The conditions noted are these: source organism: Bacillus cereus G9241.
Experiment [32] has as its target HLA-A*24:03. The description is as above. The conditions noted are these: source organism: Bacillus anthracis str. A0488.
For experiment [33], the target named is HLA-B*07:02. Nature of the experiment: IEDB peptide-MHC binding, purified MHC/direct/fluorescence; filed as Kd, often an IC50 or EC50 that approximates it; ≥ and ≤ were set here for values at or beyond the usual limits of such assays. The conditions noted are these: source organism: SARS-CoV1.
The target in experiment [34] is HLA-A*02:01. The description is as above. The conditions noted are these: source organism: SARS-CoV1.
Where [35] appears, read: source organism: Yersinia pestis Antiqua.
The mark [36] stands for this setting: source organism: Escherichia coli O157:H7.
Where [37] appears, read: source organism: Hepatitis C virus (isolate H).
[38] abbreviates: source organism: Vaccinia virus WR.
Setting [39] is: source organism: Triticum aestivum.
Setting [40] is: source organism: Mammarenavirus machupoense.
Where [41] appears, read: source organism: SARS coronavirus Tor2.
Where [42] appears, read: source organism: Yersinia enterocolitica.

The term Kd denotes the free concentration of one partner at which half of the binding sites on the other are occupied at equilibrium, for simple one-to-one binding. Turning to FASSRMSTY, the Kd in experiment [1] (setting [35]) is at most 0.001 µM; in experiment [2] it was 0.223 µM; in experiment [3] it was 0.0002 µM; in experiment [4], 0.979 µM.

Consider GMLVGRLGK, for which the results for the dissociation constant (Kd) in [5] (setting [36]), in experiment [6] (setting [36]) and in [7] (source organism: Escherichia coli O157:H7 str. Sakai) were 0.0293 µM, 0.191 µM and 0.0137 µM, respectively.

As to HPALVFDITK, the Kd in experiment [8] (setting [37]) is 7.41 µM; in experiment [9] it was at least 70.2 µM; in experiment [10] (setting [37]), at least 70 µM; in [11] (setting [37]) it was 4.2 µM; in experiment [12] (setting [37]), 3.04 µM; in [13] it was at least 70.8 µM. Besides, the Kd in [14] (setting [37]) was at least 69.8 µM; in experiment [15] (setting [37]), 0.13 µM; in experiment [16] (setting [37]), 0.478 µM; in experiment [17] (setting [37]) it was 0.433 µM; in [18], at least 63.3 µM; in experiment [19] (setting [37]) it was at least 47.2 µM. The Kd in experiment [20] (setting [37]) was at least 69.8 µM; in experiment [21] (setting [37]), 0.00232 µM; in [22], 6.4 µM; in experiment [23] (setting [37]) it was at least 38.4 µM; in [24] it was at least 28.2 µM; in experiment [25] it was at least 52.1 µM. Besides, the Kd was at least 69.6 µM in [26], at least 69.6 µM in [27] (setting [37]), at least 69.4 µM in [28] (setting [37]) and 0.862 µM in experiment [29] (setting [37]).

On to IAMESIVIW, for which, in [1] (source organism: Human immunodeficiency virus 1), the Kd is at most 0.001 µM.

In the case of IAYESSNKI, the Kd amounted to 0.007 µM in experiment [1] (source organism: Rickettsia felis URRWXCal2) and 0.196 µM in experiment [30].

For the sequence ILIFLRNFR, the Kd in [7] (source organism: Bacillus cereus G9241) is 0.0051 µM; in experiment [31], at least 20 µM.

KLAETRMGY: the dissociation constant (Kd) came to 0.0711 µM in experiment [5] (setting [36]), 0.931 µM in [6] (setting [36]) and 0.153 µM in experiment [7] (source organism: Escherichia coli).

As for KVFSFWLLCK, the Kd in [8] (setting [38]) was 3.36 µM; in experiment [10] (setting [38]), 0.00925 µM; in experiment [11] (setting [38]), 0.0063 µM; in experiment [12] (setting [38]), at least 44.9 µM; in experiment [14] (setting [38]) it was at least 49.4 µM; in experiment [15] (setting [38]) it was 2.55 µM. The Kd was 2.34 µM in experiment [16] (setting [38]); at least 47.4 µM in experiment [17] (setting [38]); 4.25 µM in experiment [19] (setting [38]); 8.66 µM in experiment [20] (setting [38]); 0.0428 µM in [21] (setting [38]); 0.863 µM in experiment [23] (setting [38]). The results for the Kd in experiment [27] (setting [38]), in experiment [28] (setting [38]) and in experiment [29] (setting [38]) were 17 µM, 1.19 µM and 0.00327 µM, respectively.

Regarding LPRVVGGKTV, the Kd in [12] (setting [38]) is 0.000306 µM; in experiment [15] (setting [38]) it was 0.0391 µM; in [16] (setting [38]), 12.4 µM; in experiment [17] (setting [38]), at least 28.8 µM; in experiment [27] (setting [38]), 0.0326 µM.

In turn, QFMEGIYKL had a Kd in experiment [32] of 0.0041 µM.

As to QPQYSQPQQPI, the Kd is at least 64 µM in [12] (setting [39]); at least 63.7 µM in experiment [15] (setting [39]); at least 63.7 µM in experiment [16] (setting [39]); at least 63.7 µM in experiment [17] (setting [39]); 11.4 µM in experiment [27] (setting [39]).

Take RAFKYPFIK: the Kd in experiment [5] (source organism: Fowlpox virus) was determined as 0.0068 µM; in [6] (source organism: Fowlpox virus) it was 0.0017 µM; in experiment [7] (source organism: Fowlpox virus), 0.06 µM.

For the sequence RPTPKKMNIV, the Kd is 0.0524 µM in [12] (setting [38]); 5.86 µM in [15] (setting [38]); at least 69.9 µM in [16] (setting [38]); at least 48.8 µM in [17] (setting [38]); at least 69.6 µM in experiment [27] (setting [38]).

As for TFMIITSTK, the Kd in experiment [8] (setting [38]) is at least 30.8 µM; in experiment [10] (setting [38]) it was 0.367 µM; in experiment [11] (setting [38]), 0.404 µM; in experiment [12] (setting [38]) it was at least 77.5 µM; in experiment [14] (setting [38]), at least 76.9 µM; in experiment [15] (setting [38]) it was at least 42.6 µM. For the same sequence, the Kd was at least 78.2 µM in [16] (setting [38]); 19.7 µM in experiment [17] (setting [38]); at least 63.7 µM in [19] (setting [38]); at least 77.1 µM in [20] (setting [38]); 0.104 µM in experiment [21] (setting [38]); 0.619 µM in experiment [23] (setting [38]). The Kd was at least 77.5 µM in experiment [27] (setting [38]), at least 78.1 µM in experiment [28] (setting [38]) and 0.189 µM in experiment [29] (setting [38]).

As for TPNQPSAEF, the dissociation constant (Kd) was determined as 0.076 µM in [12] (setting [40]); 18.7 µM in experiment [15] (setting [40]); 0.565 µM in experiment [16] (setting [40]); 0.0403 µM in experiment [17] (setting [40]); 13 µM in experiment [27] (setting [40]).

Regarding TPRDLGACI, the Kd in experiment [15] (setting [41]) is 3.88 µM; in experiment [16] (setting [41]), at least 42 µM; in [17] (setting [41]) it was 12.9 µM; in [27] (setting [41]), 3.89 µM; in [33], 0.188 µM; in [34], at least 36 µM. This sequence had a Kd in [6] (source organism: SARS-CoV1) of 9.73 µM.

On to TVWNRLIAR, for which the Kd was 0.0393 µM in experiment [5] (setting [42]), 0.0326 µM in experiment [6] (setting [42]) and at most 0.001 µM in experiment [7] (setting [35]).
